Reference: the supplement of paper PMC11246515
± gives the standard deviation of the averaged measurements.

Assay: total protein half-life in vivo (active degradation + dilution); higher = more stable protein
[1] = E. coli NCM3722 delta-clpP, growth: N-lim chemostat, doubling time 6 h
[2] = E. coli NCM3722 delta-hslV, growth: N-lim chemostat, doubling time 6 h
[3] = E. coli NCM3722 delta-lon, growth: N-lim chemostat, doubling time 6 h
[4] = E. coli NCM3722 delta-smpB, growth: N-lim chemostat, doubling time 6 h
[5] = wild type E. coli NCM3722, growth: C-lim chemostat, doubling time 3 h
[6] = wild type E. coli NCM3722, growth: C-lim chemostat, doubling time 6 h
[7] = wild type E. coli NCM3722, growth: C-lim chemostat, doubling time 12 h
[8] = wild type E. coli NCM3722, growth: N-lim chemostat, doubling time 6 h
[9] = wild type E. coli NCM3722, growth: N-lim chemostat, doubling time 12 h
[10] = wild type E. coli NCM3722, growth: P-lim chemostat, doubling time 6 h
[11] = wild type E. coli NCM3722, growth: P-lim chemostat, doubling time 12 h
[12] = E. coli NCM3722 delta-clpP delta-lon delta-hslV, growth: N-lim chemostat, doubling time 6 h

Sequence	total protein half-life in vivo [1] [h]	total protein half-life in vivo [2] [h]	total protein half-life in vivo [3] [h]	total protein half-life in vivo [4] [h]	total protein half-life in vivo [5] [h]	total protein half-life in vivo [6] [h]	total protein half-life in vivo [7] [h]	total protein half-life in vivo [8] [h]	total protein half-life in vivo [9] [h]	total protein half-life in vivo [10] [h]	total protein half-life in vivo [11] [h]	total protein half-life in vivo [12] [h]
MTEVRRRGRPGQAEPVAQKGAQALERGIAILQYLEKSGGSSSVSDISLNLDLPLSTTFRLLKVLQAADFVYQDSQLGWWHIGLGVFNVGAAYIHNRDVLSVAGPFMRRLMLLSGETVNVAIRNGNEAVLIGQLECKSMVRMCAPLGSRLPLHASGAGKALLYPLAEEELMSIILQTGLQQFTPTTLVDMPTLLKDLEQARELGYTVDKEEHVVGLNCIASAIYDDVGSVVAAISISGPSSRLTEDRFVSQGELVRDTARDISTALGLKAHP [P0ACN4]	5.13 ± 0.62	5.12 ± 0.34	4.42 ± 0.94	4.4 ± 0.4	2.79 ± 0.13	5.64 ± 0.18	11 ± 0.97	4.91 ± 0.23	9.46 ± 0.2	5.44 ± 0.41	11.1 ± 0.81	
MSFSCPLCHQPLSREKNSYICPQRHQFDMAKEGYVNLLPVQHKRSRDPGDSAEMMQARRAFLDAGHYQPLRDAIVAQLRERLDDKATAVLDIGCGEGYYTHAFADALPEITTFGLDVSKVAIKAAAKRYPQVTFCVASSHRLPFSDTSMDAIIRIYAPCKAEELARVVKPGGWVITATPGPRHLMELKGLIYNEVHLHAPHAEQLEGFTLQQSAELCYPMRLRGDEAVALLQMTPFAWRAKPEVWQTLAAKEVFDCQTDFNIHLWQRSY	4.95 ± 0.29	4.97	4.9 ± 0.089	4.28 ± 0.53	2.57	5.6	10.8 ± 0.77	5.34 ± 0.44	9.24 ± 0.73	5.78 ± 0.22	13.5 ± 2.7	6.07 ± 0.81
MKLKTTLFGNVYQFKDVKEVLAKANELRSGDVLAGVAAASSQERVAAKQVLSEMTVADIRNNPVIAYEDDCVTRLIQDDVNETAYNQIKNWSISELREYVLSDETSVDDIAFTRKGLTSEVVAAVAKICSNADLIYGAKKMPVIKKANTTIGIPGTFSARLQPNDTRDDVQSIAAQIYEGLSFGVGDAVIGVNPVTDDVENLSRVLDTIYGVIDKFNIPTQGCVLAHVTTQIEAIRRGAPGGLIFQSICGSEKGLKEFGVELAMLDEARAVGAEFNRIAGENCLYFETGQGSALSAGANFGADQVTMEARNYGLARHYDPFIVNTVVGFIGPEYLYNDRQIIRAGLEDHFMGKLSGISMGCDCCYTNHADADQNLNENLMILLATAGCNYIMGMPLGDDIMLNYQTTAFHDTATVRQLLNLRPSPEFERWLESMGIMANGRLTKRAGDPSLFF [P0AEJ6]	5.45 ± 0.56	4.07 ± 0.41	4.68 ± 0.12	3.91 ± 0.24	3.36 ± 0.3	6.26 ± 0.2	11.1 ± 0.83	3.82 ± 0.15	6.18 ± 0.099	6.37 ± 0.16	12 ± 0.84	5.95 ± 1.3
MITVALIDDHLIVRSGFAQLLGLEPDLQVVAEFGSGREALAGLPGRGVQVCICDISMPDISGLELLSQLPKGMATIMLSVHDSPALVEQALNAGARGFLSKRCSPDELIAAVHTVATGGCYLTPDIAIKLASGRQDPLTKRERQVAEKLAQGMAVKEIAAELGLSPKTVHVHRANLMEKLGVSNDVELARRMFDGW [P0AGA6]	4.19 ± 0.075		4.25 ± 1.2	3.84 ± 0.34	2.7 ± 0.14	4.26 ± 1.2	8.86 ± 0.39	4.01 ± 0.17	6.351 ± 0.022	4.35 ± 0.56	7.3 ± 0.44	5.29 ± 0.12
MFLINGHKQESLAVSDRATQFGDGCFTTARVIDGKVSLLSAHIQRLQDACQRLMISCDFWPQLEQEMKTLAAEQQNGVLKVVISRGSGGRGYSTLNSGPATRILSVTAYPAHYDRLRNEGITLALSPVRLGRNPHLAGIKHLNRLEQVLIRSHLEQTNADEALVLDSEGWVTECCAANLFWRKGNVVYTPRLDQAGVNGIMRQFCIRLLAQSSYQLVEVQASLEESLQADEMVICNALMPVMPVCACGDVSFSSATLYEYLAPLCERPN	3.87 ± 0.15		4.279 ± 0.035	3.89 ± 0.18	3.04 ± 0.24	5.58 ± 0.27	10.9 ± 0.86	3.82 ± 0.069	6.33 ± 0.35	6.45 ± 1.4	10.7 ± 1	5.13 ± 0.82
MLTIQFLCPLPNGLHARPAWELKEQCSQWQSEITFINHRQNAKADAKSSLALIGTGTLFNDSCSLNISGSDEEQARRVLEEYIQVRFIDSDSVQPTQAELTAHPLPRSLSRLNPDLLYGNVLASGVGVGTLTLLQSDSLDSYRAIPASAQDSTRLEHSLATLAEQLNQQLRERDGESKTILSAHLSLIQDDEFAGNIRRLMTEQHQGLGAAIISNMEQVCAKLSASASDYLRERVSDIRDISEQLLHITWPELKPRNKLVLEKPTILVAEDLTPSQFLSLDLKNLAGMILEKTGRTSHTLILARASAIPVLSGLPLDAIARYAGQPAVLDAQCGVLAINPNDAVSGYYQVAQTLADKRQKQQAQAAAQLAYSRDNKRIDIAANIGTALEAPGAFANGAEGVGLFRTEMLYMDRDSAPDEQEQFEAYQQVLLAAGDKPIIFRTMDIGGDKSIPYLNIPQEENPFLGYRAVRIYPEFAGLFRTQLRAILRAASFGNAQLMIPMVHSLDQILWVKGEIQKAIVELKRDGLRHAETITLGIMVEVPSVCYIIDHFCDEVDFFSIGSNDMTQYLYAVDRNNPRVSPLYNPITPSFLRMLQQIVTTAHQRGKWVGICGELGGESRYLPLLLGLGLDELSMSSPRIPAVKSQLRQLDSEACRELARQACECRSAQEIEALLTAFTPEEDVRPLLALENIFVDQDFSNKEQAIQFLCGNLGVNGRTEHPFELEEDVWQREEIVTTGVGFGVAIPHTKSQWIRHSSISIARLAKPIGWQSEMGEVELVIMLTLGANEGMNHVKVFSQLARKLVNKNFRQSLFAAQDAQSILTLLETELTF				2.21	2.36					3.21		6.54
MNIELLQQLCEASAVSGDEQEVRDILINTLEPCVNEITFDGLGSFVARKGNKGPKVAVVGHMDEVGFMVTHIDESGFLRFTTIGGWWNQSMLNHRVTIRTHKGVKIPGVIGSVAPHALTEKQKQQPLSFDEMFIDIGANSREEVEKRGVEIGNFISPEANFACWGEDKVVGKALDNRIGCAMMAELLQTVNNPEITLYGVGSVEEEVGLRGAQTSAEHIKPDVVIVLDTAVAGDVPGIDNIKYPLKLGQGPGLMLFDKRYFPNQKLVAALKSCAAHNDLPLQFSTMKTGATDGGRYNVMGGGRPVVALCLPTRYLHANSGMISKADYEALLTLIRGFLTTLTAEKVNAFSQFRQVD			3.4	3.85 ± 0.0073	2.53			3.72		4.06	9.711 ± 0.074	
